Reference: US6699969B1, “Assays for the detection of microtubule depolymerization inhibitors” (The Regents of the University of California, priority 1998, dated 2004)

Experiments:
[1] = literature values; cited from earlier work
[2] = test system: Taxol-stabilized, rhodamine-labeled microtubules; test: Microscope-based microtubule severing assay; assay type: biochemical
Experimental: Microscope-based severing assays were performed using previously published procedures (McNally and Vale (1993) Cell, 75: 419-429), except that microtubules were immobilized by first perfusing flow cells with a bacterially expressed kinesin mutant that binds strongly to microtubules but is unable to hydrolyze ATP (K560, G234A mutant; R. Vale and E. Taylor, unpublished results). Assays were performed in 20 mM Hepes (pH 7.5), 2 mM MgCl2, 1 mM ATP with an oxygen scavenger system consisting of glucose oxidase (220 μg/ml), catalase (36 μg/ml), glucose (22.5 mM), and 2-mercaptoethanol (71.5 mM). Images were captured using a cooled, slow-scan CCD (Photometerics) and processed using Adobe Photoshop.

microtubules = test: DAPI fluorescence microtubule disassembly (severing) assay; assay type: biochemical, bovine; details: 2 μM microtubules, FIG. 5C
Experimental: ATPase activity was measured by a modified malachite green method (Kodama et al. (1986) J. Biochem. 99: 1465-1472). ATPase reactions of 50-100 μL were carried out in a buffer previously used for measuring the ATPase activity of native katanin [20 mM K-HEPES pH 8.0, 25 mM K-Glutamate, 2 mM MgCl2, 10% glycerol (v/v), 0.02% Triton X-100 (w/v), 1 mg/ml BSA] (McNally and Vale (1993) Cell, 75: 419-429), except that soybean trypsin inhibitor (SBTI) was replaced by BSA as a carrier protein because SBTI increased background phosphate contamination. An ATP regenerating system consisting of 0.5-1.0 mM phospho-enol pyruvate and 2U pyruvate kinase was included to minimize the inhibition by ADP observed previously for native katanin (McNally and Vale (1993) Cell, 75; 419-429). […] Microtubule concentration was determined by measuring the absorbance at 275 nm in 6M guanidine HCl by using a molecular mass of 110 kDa and an extinction coefficient of 1.03 ml*mg^−1*cm^−1 (Hackney (1988) Proc. Natl. Acad. Sci. USA, 85: 6314-6318). […]
DAPI severing assays were performed using conditions where the change in fluorescence intensity was linear with the amount of tubulin polymer added (Heusele et al. (1987) Eur. J. Biochem. 165: 613-620). […] The reaction volume was 80 μL, and. fluorescence intensity was measured by exciting at 370 nm and measuring the emission at 450 nm using a model 8100 fluorimeter. […]

[3] = ATPase assay (modified malachite green method); assay type: biochemical
Experimental: ATPase activity was measured by a modified malachite green method (Kodama et al. (1986) J. Biochem. 99: 1465-1472). ATPase reactions of 50-100 μL were carried out in a buffer previously used for measuring the ATPase activity of native katanin [20 mM K-HEPES pH 8.0, 25 mM K-Glutamate, 2 mM MgCl2, 10% glycerol (v/v), 0.02% Triton X-100 (w/v), 1 mg/ml BSA] (McNally and Vale (1993) Cell, 75: 419-429), except that soybean trypsin inhibitor (SBTI) was replaced by BSA as a carrier protein because SBTI increased background phosphate contamination. An ATP regenerating system consisting of 0.5-1.0 mM phospho-enol pyruvate and 2U pyruvate kinase was included to minimize the inhibition by ADP observed previously for native katanin (McNally and Vale (1993) Cell, 75; 419-429). Microtubules were prepared from bovine brain tubulin (Hyman el al. (1 990) Meth. Enzymol. 196: 303-319; Williams and Lee (1982) Meth Enzymol. 85B: 376-385). After assembly, microtubules were sedimented (230,000×g; 10 min), resuspended in ATPase buffer lacking BSA, and the polymers were resuspended by repeated passage through a 27 gauge needle. Microtubule concentration was determined by measuring the absorbance at 275 nm in 6M guanidine HCl by using a molecular mass of 110 kDa and an extinction coefficient of 1.03 ml*mg^−1*cm^−1 (Hackney (1988) Proc. Natl. Acad. Sci. USA, 85: 6314-6318). […]

B1: p97: AAA ATPase cited for comparison (Peters et al. 1992) (protein, UniProt P23787 1-805, looked up)
Transitional endoplasmic …: MASGSDTKSDDLSTAILKQKSRPNRLIVDESINEDNSMVSLSQAKMDELQLFRGDTVLLKGKKRREAVCIVLSDDTCSDEKIRMNRVVRNNLRVRLGDVISIQPCPDVKYGKRVHVLPIDDTVEGITGNLFEVYLKPYFLEAYRPIRKGDIFLVRGGMRAVEFKVVETDPSPYCIVAPDTVIHCEGEPIKREDEEESLNEVGYDDIGGCRKQLAQIKEMVELPLRHPALFKAIGVKPPRGILLYGPPGTGKTLIARAVANETGAFFFLINGPEIMSKLAGESESNLRKAFEEAEKNAPAIIFIDELDAIAPKREKTHGEVERRIVSQLLTLMDGLKQRAHVIVMAATNRPNSIDPALRRFGRFDREVDIGIPDSTGRLEILQIHTKNMKLSDDVDLEQVANETHGHVGADLAALCSEAALQAIRKKMDLIDLEDETIDAEVMNSLAVTMDDFRWALSQSNPSALRETVVEVPQVTWEDIGGLEDVKRELQELVQYPVEHPDKFLKFGMTPSKGVLFYGPPGCGKTLLAKAIANECQANFISIKGPELLTMWFGESEANVREIFDKARQAAPCVLFFDELDSIAKARGGNIGDGGGAADRVINQILTEMDGMSIKKNVFIIGATNRPDIIDPAILRPGRLDQLIYIPLPDEKSRMAILKANLRKSPVAKDVDVDFLAKMTNGFSGADLTEICQRACKLAIRESIENEIRRERDRQTNPSAMEVEEDDPVPEIRRDHFEEAMRFARRSVSDNDIRKYEMFAQTLQQSRGFGSFRFPAGGQSGAGPSPGAGGGSGGGHFTEEDDDLYG
- ATPase activity of other AAA proteins [1]: 1 ATP/sec

B2: p80: S. purpuratus katanin 80 kDa subunit, 690 a.a. polypeptide with six WD40 repeats (SEQ ID NO: 2) (protein, listed as Strongylocentrotus purpuratus)
chain: MATKRAWKLQELVAHSSNVNCLALGPMSGRVMVTGGEDKKVNLWAVGKQNCIISLSGHTSPVDSVKFNSSEELVVAGSQSGTMKIYDLEPAKIVRTLTGHRNSIRCMDFHPFGEFVASGSTDTNVKLWDVRRKGCIYTYKGHSDQVNMIKFSPDGKWLVTASEDTTIKLWDLTMGKLFQEFKNHTGGVTGIEFHPNEFLLASGSSDRTVQFWDLETFQLVSSTSPGASAVRSISFHPDGSYLFCSSQDMLHAFGWEPIRCFDTFSVFWGKVADTVIASTQLIGASFNATNVSVYVADLSRMSTTGIAQEPQSQPSKTPSGGAEEVPSKPLTASGRKNFVRERPHTTSSKQRQPDVKSEPERQSPTQDEGVKDDDATDIKDPDSYAKIFSPKTRVDHSPERNAQPFPAPLDVPGAQEPEPFKHPPKPAAAAAVAPVSRAPAPSASDWQPAQANPAPNRVPAATKPVPAQEVAPSRKPDPISTIIPSDRNKPANLDMDAFLPPAHAQQAPRVNAPASRKQSDSERIEGLRKGHDSMCQVLSSRHRNLDVVRAIWTAGDAKTSVESVVNMKDQAILVDILNIMLLKKSLWNLDMCVVVLPRLKELLSSKYENYVHTSCACLKLILKNFTSLFNQNIKCPPSGIDITREERYNKCSKCYSYLIATRGYVEEKQHVSGKLGSSFRELHLLLDQLE
modifications: katanin p80 subunit
- microtubule severing ([2]; concentrations 5-fold higher than those used for p60 (0.5 μM)): unable to sever microtubules
- change in DAPI fluorescence (microtubules): did not cause a change in fluorescence
- ATPase activity ([3]; baculovirus-expressed subunit alone): no detectable ATPase activity

B3: p60: S. purpuratus katanin 60 kDa subunit, 516 a.a. AAA ATPase (SEQ ID NO: 1), baculovirus-expressed with N-terminal His(6) tag (protein, listed as Strongylocentrotus purpuratus)
chain: MSVDEICENTKMGREYALLGNYETSLVYYQGVLQQIQKLLTSVHEPQRKHQWQTIRQELSQEYEHVKNITKTLNGFKSEPAAPEPAPNHGRAAPFSHHQHAAKPAAAEPARDPDVWPPPTPVDHRPSPPYQRAARKDPPRRSEPSKPANRAPGNDRGGRGPSDRRGDARSGGGGRGGARGSDKDKNRGGKSDKDKKAPSGEEGDEKKFDPAGYDKDLVENLERDIVQRNPNVHWADIAGLTEAKRLLEEAVVLPLWMPDYFKGIRRPWKGVLMVGPPGTGKTMLAKAVATECGTTFFNVSSASLTSKYHGESEKLVRLLFEMARFYAPSTIFIDEIDSICSKRGTGSEHEASRRVKSELLIQMDGVSGPSAGEESSKMVMVLAATNFPWDIDEALRRRLEKRIYIPLPEIDGREQLLRINLKEVPLADDIDLKSIAEKMDGYSGADITNVCRDASMMAMRRRIQGLRPEEIRHIPKEELNQPSTPADFLLALQKVSKSVGKEDLVKYMAWMEEFGSV
modifications: N-terminal His6 tag; katanin p60 subunit
- time until microtubules were completely disassembled ([2]; 0.1 μM protein): 5 min
- microtubule concentration at peak stimulation of ATP turnover [3]: ~2 μM tubulin
